Data taken from US20180273622A1 (APTEVO RESEARCH AND DEVELOPMENT, published 2018).

B1: Fc H10L7 (TSC341) (Fc fusion)
chain: EPKSSDKTHTCPPCPAPEAAGAPSVFLFPPKPKDTLMISRTPEVTCVVVDVSHEDPEVKFNWYVDGVEVHNAKTKPREEQYNSTYRVVSVLTVLHQDWLNGKAYACAVSNKALPAPIEKTISKAKGQPREPQVYTLPPSRDELTKNQVSLTCLVKGFYPSDIAVEWESNGQPENNYKTTPPVLDSDGSFFLYSKLTVDKSRWQQGNVFSCSVMHEALHNHYTQKSLSLSPGQRHNNSSLNTGTQMAGHSPNSQVQLVQSGAEVKKPGSSVKVSCKASGGTFSRSTMHWVRQAPGQGLEWMGYINPSSAYTNYNQKFKDRVTITADKSTSTAYMELSSLRSEDTAVYYCARPQVHYDYNGFPYWGQGTLVTVSSGGGGSGGGGSGGGGSGGGGSEIVLTQSPATLSLSPGERATLSCSASSSVSYMNWYQQKPGLAPRRWIYDSSKLASGIPDRFSGSGSGTDFTLTISRLEPEDFAVYYCQQWSRNPPTFGGGTKVEIKRSSS
notes: Fc anti-CD3 scFv format; The entry is the mature protein
B2: Fc H10L5 (TSC324) (Fc fusion)
chain: EPKSSDKTHTCPPCPAPEAAGAPSVFLFPPKPKDTLMISRTPEVTCVVVDVSHEDPEVKFNWYVDGVEVHNAKTKPREEQYNSTYRVVSVLTVLHQDWLNGKAYACAVSNKALPAPIEKTISKAKGQPREPQVYTLPPSRDELTKNQVSLTCLVKGFYPSDIAVEWESNGQPENNYKTTPPVLDSDGSFFLYSKLTVDKSRWQQGNVFSCSVMHEALHNHYTQKSLSLSPGQRHNNSSLNTGTQMAGHSPNSQVQLVQSGAEVKKPGSSVKVSCKASGGTFSRSTMHWVRQAPGQGLEWMGYINPSSAYTNYNQKFKDRVTITADKSTSTAYMELSSLRSEDTAVYYCARPQVHYDYNGFPYWGQGTLVTVSSGGGGSGGGGSGGGGSGGGGSDIQMTQSPSSLSASVGDRVTITCSASSSVSYMNWYQQKPGKAPKLLIYDSSKLASGVPSRFSGSGSGTDFTLTISSLQPEDFATYYCQQWSRNPPTFGGGTKVEIKRSSS
notes: Fc anti-CD3 scFv format with H75 linker; The entry is the mature protein
B3: Fc H10L8 (TSC342) (Fc fusion)
chain: EPKSSDKTHTCPPCPAPEAAGAPSVFLFPPKPKDTLMISRTPEVTCVVVDVSHEDPEVKFNWYVDGVEVHNAKTKPREEQYNSTYRVVSVLTVLHQDWLNGKAYACAVSNKALPAPIEKTISKAKGQPREPQVYTLPPSRDELTKNQVSLTCLVKGFYPSDIAVEWESNGQPENNYKTTPPVLDSDGSFFLYSKLTVDKSRWQQGNVFSCSVMHEALHNHYTQKSLSLSPGQRHNNSSLNTGTQMAGHSPNSQVQLVQSGAEVKKPGSSVKVSCKASGGTFSRSTMHWVRQAPGQGLEWMGYINPSSAYTNYNQKFKDRVTITADKSTSTAYMELSSLRSEDTAVYYCARPQVHYDYNGFPYWGQGTLVTVSSGGGGSGGGGSGGGGSGGGGSDIQMTQSPSTLSASVGDRVTITCSASSSVSYMNWYQQKPGKAPKRWIYDSSKLASGVPSRFSGSGSGTEFTLTISSLQPDDFATYYCQQWSRNPPTFGGGTKVEIKRSSS
notes: as for B1
B4: Fc H10L6 (TSC340) (Fc fusion)
chain: EPKSSDKTHTCPPCPAPEAAGAPSVFLFPPKPKDTLMISRTPEVTCVVVDVSHEDPEVKFNWYVDGVEVHNAKTKPREEQYNSTYRVVSVLTVLHQDWLNGKAYACAVSNKALPAPIEKTISKAKGQPREPQVYTLPPSRDELTKNQVSLTCLVKGFYPSDIAVEWESNGQPENNYKTTPPVLDSDGSFFLYSKLTVDKSRWQQGNVFSCSVMHEALHNHYTQKSLSLSPGQRHNNSSLNTGTQMAGHSPNSQVQLVQSGAEVKKPGSSVKVSCKASGGTFSRSTMHWVRQAPGQGLEWMGYINPSSAYTNYNQKFKDRVTITADKSTSTAYMELSSLRSEDTAVYYCARPQVHYDYNGFPYWGQGTLVTVSSGGGGSGGGGSGGGGSGGGGSDIQMTQSPSSLSASVGDRVTITCSASSSVSYMNWYQQKPGKAPKRWIYDSSKLASGVPSRFSGSGSGTDFTLTISSLQPEDFATYYCQQWSRNPPTFGGGTKVEIKRSSS
notes: as for B1

Tests used:
[1] = target: T1, human CD3 (human, UniProt P07766 23-207; P09693 23-182; P04234 22-171; P20963 22-164); assay: flow cytometry on a Jurkat subclone with higher CD3 expression (FIG. 2)
T1 construct: whole, on cells; It was presented on the CD3+ Jurkat T-cell line, on a Jurkat subclone with higher CD3 expression, or on human T-cells; also called CD3 on Jurkat T-cells; CD3 on human T-cells

[2] = target: T1, human CD3; assay: flow cytometry on Jurkat T-cells, anti-human IgG detection
Method: Binding studies were performed by standard flow cytometry-based staining procedures using the CD3⁺ Jurkat T-cell line. All labeling and washes were performed in U-bottom 96-well plates in saline buffer with 3% BSA and 2 mM EDTA. Jurkat cells were plated at 200,000 cells per well and incubated with a range of 0.1 nM to 200 nM concentrations of test molecules in 50 μL volume/well, for 30 minutes on ice. Cells were washed three times then incubated for another 30 minutes on ice with fluorescently-labeled minimum cross reactive secondary polyclonal antibody, F(ab′)² goat anti-human IgG, (Jackson ImmunoResearch Laboratories) and the viability dye 7-AAD. The cells were then washed twice, and the samples acquired in a BD LSRII flow cytometer. The sample files were analyzed using FlowJo software; the mean fluorescence intensity (MFI) of the live population of Jurkat cells in each well was calculated after gating on live cells (forward vs. side scatter, then 7-AAD cells).

T1 sequence (P07766 23-207, chain 1 of 4): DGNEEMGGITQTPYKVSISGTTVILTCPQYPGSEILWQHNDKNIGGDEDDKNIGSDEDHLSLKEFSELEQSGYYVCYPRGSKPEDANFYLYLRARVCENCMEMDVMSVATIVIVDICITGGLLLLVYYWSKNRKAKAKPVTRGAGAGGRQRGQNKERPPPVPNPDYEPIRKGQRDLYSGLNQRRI
T1 sequence (P09693 23-182, chain 2 of 4): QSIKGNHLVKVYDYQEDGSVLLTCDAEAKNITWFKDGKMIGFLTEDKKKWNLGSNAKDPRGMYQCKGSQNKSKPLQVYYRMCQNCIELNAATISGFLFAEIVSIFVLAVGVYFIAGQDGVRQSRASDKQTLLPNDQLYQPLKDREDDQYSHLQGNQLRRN
T1 sequence (P04234 22-171, chain 3 of 4): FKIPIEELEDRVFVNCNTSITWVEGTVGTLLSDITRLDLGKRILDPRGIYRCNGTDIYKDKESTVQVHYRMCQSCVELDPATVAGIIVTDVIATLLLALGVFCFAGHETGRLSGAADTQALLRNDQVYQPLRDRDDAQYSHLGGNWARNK
T1 sequence (P20963 22-164, chain 4 of 4): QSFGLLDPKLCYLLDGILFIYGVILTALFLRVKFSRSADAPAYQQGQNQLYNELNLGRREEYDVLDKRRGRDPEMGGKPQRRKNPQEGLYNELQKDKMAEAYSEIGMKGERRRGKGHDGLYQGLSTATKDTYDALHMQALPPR

Row | Binder | fold higher EC50 than TSC312 [1] | EC50 [2] | fold increase in the EC50 of binding compared to TSC312 [2]
1 | B1 | 2 fold | – | –
2 | B2 | – | 3.6 nM | 2 fold
3 | B3 | 2 fold | – | –
4 | B4 | 2 fold | – | –
